According to patent US20220175781A1, “CD40L COMPOSITIONS AND METHODS FOR TUNABLE REGULATION” (Obsidian Therapeutics, Inc., priority 2019, published 2022):
“And” between values parts separate entries of the source, which are not always exact repeats. Identical values can stand only once.

Assays:
[1] = tested on: Monocyte derived dendritic cells (mDC); test: Cytokine production in mDC-T cell co-culture (MSD); format: cell-based; details: mDC-T cell co-culture 2 days
Excerpt: (§1) In order to engage dendritic cells in an immune response, dendritic cells must be converted to a functional state by an antigen-specific CD4+ helper T cell. Activation of the dendritic cells may be followed by the activation of CD8+ T cells by the dendritic cells, a process referred to as dendritic cell licensing. Engagement of the CD40L expressed on the CD4+ cells with the CD40 on the dendritic cells can result in (i) dendritic cell stimulation-measured by expression of co-stimulatory and MHC molecules (ii) proinflammatory cytokine release (e.g. IL12, TNFα and INFγ) (iii) epitope spreading. To measure the effect of CD40L expression that is tuned by the biocircuits of the present disclosure, CD4+ T cells or Jurkat cells expressing any of the CD40L constructs described herein were co-cultured with dendritic cells.
(§2) Dendritic cell function in response to co-culture with T cells expressing CD40L was evaluated in the presence of ligand or corresponding vehicle control. Monocyte derived dendritic cells (mDC) (CD14+) were isolated from fresh blood and cultured for 5 days with IL-4 (7.5 ng/mL) and GM-CSF (20 ng/mL). The mDCs were frozen down after the 5 day culture. T cells were transduced with OT-001662 and expanded for 9 days before being frozen down. mDCs and T cells were thawed and co-cultured 1:10 DC: T cell ratio (i.e. 5×10^4 DCs: 5×10^5 T cells). mDC and T cells were co-cultured for 2 days before cells were collected for flow cytometry and supernatants were collected for cytokine analysis. For evaluation of regulated constructs, ligand (various doses of TMP) was added at the time initiating the co-culture and was kept in the co-culture for 2 days. Cytokines were analyzed by MSD after a single freeze thaw cycle. All cells were cultured in complete RPMI with 10% FBS during the course of the experiment. SR indicates stabilization ratio.

T cells (CD4+ and CD8+) [2] = test: Co-expression of CD40L and CD19 CAR on transduced T cells; format: cell-based
Excerpt: The results for CD4+ and CD8+ cells and total cells are shown below.

T cells (CD4+ and CD8+) [3] = test: Regulation of CD40L in T cells by different drug responsive domains; format: cell-based; details: Ligand N/A
[4] = tested on: T cells co-cultured with monocyte derived dendritic cells (mDC); test: CD40L levels in T cells in mDC co-culture (FACS); format: cell-based; details: mDC co-culture 2 days
Excerpt: as §1, §2

hCD45+ cells = hCD45+ cells in blood by FACS 14 days after T-cell infusion; format: in vivo, mice; details: cell number not given
Description: (§3) Increased expression of CD40L on CD19 positive CART cells may increase the efficacy of CAR+ T cells in vivo. To test this, 8-week old mice were injected with Nalm6-luc (1 million per mouse). On day 6, Nalm6 tumor burden was measured and mice were grouped to ensure that all groups had similar tumor sizes. Body weight and Bioluminescence Intensity (BLI) were measured twice a week. Blood and plasma were also collected for cytokine analysis, CD40L and IL12.
Human cells were analyzed by FACS (hCD45+) from the blood 14 days after T-cell infusion, which equals 21 days after tumor implant. The results are shown in Table 22 where M indicates million.

Nalm6-luc = Nalm6-luc tumor model, Bioluminescence Intensity (BLI); format: in vivo, mice; details: CD40L only T cells, no CAR+ number
Description: as §3

B1: OT-001661: constitutively expressed full length CD40L construct (protein)
chain: MHMIETYNQTSPRSAATGLPISMKIFMYLLTVFLITQMIGSALFAVYLHRRLDKIEDERNLHEDFVFMKTIQRCNTGERSLSLLNCEEIKSQFEGFVKDIMLNKEETKKENSFEMQKGDQNPQIAAHVISEASSKTTSVLQWAEKGYYTMSNNLVTLENGKQLTVKRQGLYYIYAQVTFCSNREASSQAPFIASLCLKSPGRFERILLRAANTHSSAKPCGQQSIHLGGVFELQPGASVFVNVTDPSQVSHGTGFTSFGLLKL
With B1 the “Cytokine Production IFNg” value ([1]; DMSO) was 12973 pg/mL, the “Cytokine Production IL12” value ([1]; DMSO) was 58.935 pg/mL and the “Cytokine Production TNFa” value ([1]; DMSO) was 456.3242 pg/mL. For the same molecule, the “Cytokine Production IFNg” value ([1]; TMP) was 10939.9 pg/mL, the “Cytokine Production IL12” value ([1]; TMP) was 86.229 pg/mL and the “Cytokine Production TNFa” value ([1]; TMP) was 440.0804 pg/mL. For the same molecule, the “Percent of Cells co-expressing CD40L and CD19 CAR” value (T cells (CD4+ and CD8+) [2]; All Cells) was 0%, the “Percent of Cells co-expressing CD40L and CD19 CAR” value (T cells (CD4+ and CD8+) [2]; CD4+) was 0% and the “Percent of Cells co-expressing CD40L and CD19 CAR” value (T cells (CD4+ and CD8+) [2]; CD8+) was 0%. For the same molecule, the CD40L positive (T cells (CD4+ and CD8+) [3]; All Cells) was 98%, the MFI (T cells (CD4+ and CD8+) [3]; All Cells) was 20451 and the CD40L positive (T cells (CD4+ and CD8+) [3]; CD4+) was 98.7%. The MFI (T cells (CD4+ and CD8+) [3]; CD4+) was 24489, the CD40L positive (T cells (CD4+ and CD8+) [3]; CD8+) was 97.8% and the MFI (T cells (CD4+ and CD8+) [3]; CD8+) was 14352. For the same molecule, the “% CD40L+” value ([4]; CD4+, DMSO) was 68.1%, the “CD40L MFI” value ([4]; CD4+, DMSO) was 579 and the “% CD40L+” value ([4]; CD4+, TMP) was 68.3%. For the same molecule, the “CD40L MFI” value ([4]; CD4+, TMP) was 580, the “% CD40L+” value ([4]; CD8+, DMSO) was 62.2% and the “CD40L MFI” value ([4]; CD8+, DMSO) was 495. The “% CD40L+” value ([4]; CD8+, TMP) was 62.3%, the “CD40L MFI” value ([4]; CD8+, TMP) was 499 and the “Percentage hCD45+ cells, Average” value (hCD45+ cells) was 0.002%. For the same molecule, the “Percentage hCD45+ cells, Individual values” (hCD45+ cells) was 0.00249% and 0.00331% and 0.00198% and 0%, the “Average BLI values” (Nalm6-luc; Day 6 (before T cell injection on day 7)) was 2.04E+06 and the “Average BLI values” (Nalm6-luc; Day 13) was 2.69E+08. For the same molecule, the “Average BLI values” (Nalm6-luc; Day 20) was 2.52E+09, the “Average BLI values” (Nalm6-luc; Day 25) was 5.99E+09 and the “Average BLI values” (Nalm6-luc; Day 28) was 1.04E+10.
